These results are taken from article PMC3240954 (Scientific Reports, 2011).

The target of one data set is H6-WhiA full-length (Streptomyces coelicolor, UniProt Q9Z515 1-328). In words: competition.
Data set [1] has as its target WhiA (S. coelicolor), full-length, untagged (S. coelicolor, UniProt Q9Z515 1-328). In words: pull-down.

Sequence of WhiA (S. coelicolor), full-length, untagged (Q9Z515 whole entry): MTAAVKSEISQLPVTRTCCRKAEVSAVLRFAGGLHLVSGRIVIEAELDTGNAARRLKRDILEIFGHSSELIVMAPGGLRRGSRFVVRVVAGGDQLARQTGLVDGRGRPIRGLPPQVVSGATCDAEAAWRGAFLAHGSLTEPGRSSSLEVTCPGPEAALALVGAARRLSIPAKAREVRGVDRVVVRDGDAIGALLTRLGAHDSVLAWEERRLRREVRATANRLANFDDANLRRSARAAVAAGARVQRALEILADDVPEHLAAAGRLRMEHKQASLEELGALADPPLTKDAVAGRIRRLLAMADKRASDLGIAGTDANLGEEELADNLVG
Sequence of H6-WhiA full-length (Q9Z515 whole entry): as above

B1: -22/A (dsDNA)
DNA 1: CGTCATTTGGAGGTTTTGGGACAACACGCCCCTAAACTCGCCCT
DNA 2: AGGGCGAGTTTAGGGGCGTGTTGTCCCAAAACCTCCAAATGACG
Regarding B1, in the data set with H6-WhiA full-length, the binding result is “binds”.

B2: His-tagged WhiG (H6-WhiG) (natural protein, UniProt P17211 1-280, looked up)
chain: MPQHTSGSDRAAIPPAARDGGSVRPPAPSTLDELWRSYKTTGDERLREQLILHYSPLVKYVAGRVSVGLPPNVEQADFVSSGVFGLIDAIEKFDVDREIKFETYAITRIRGAMIDELRALDWIPRSVRQKARNVERAYATLEARLRRTPSESEVAVEMGIAVEDLHAVFSQLSLANVVALEELLHAGGEGGGRLSLMDTLEDTAADNPVEVAEDRELRRLLARAINTLPEREKTVVTLYYYEGLTLAEIGNVLGVTESRVSQIHTKSVLQLRAKLAGFGR
Take B2: the binding result in data set [1] was “binds”.
